Laboratory results taken from patent US20250304918A1 (Regeneron, published 2025).

T1: mouse CACNG1 (mouse, UniProt O70578 1-223)
T1 construct: In the functional entries it is the endogenous protein on muscle of D2-mdx mice or on C2C12 myotubes
T1 sequence: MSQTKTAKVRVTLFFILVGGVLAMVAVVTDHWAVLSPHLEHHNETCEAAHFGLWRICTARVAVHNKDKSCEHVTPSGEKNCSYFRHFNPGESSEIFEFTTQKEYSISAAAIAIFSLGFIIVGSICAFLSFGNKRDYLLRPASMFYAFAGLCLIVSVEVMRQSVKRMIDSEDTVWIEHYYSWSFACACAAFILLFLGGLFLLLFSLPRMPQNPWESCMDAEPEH


Key:
mouse CACNG1 [1] = molecular target: T1, mouse CACNG1; assay: no binding assay described; definition of the label
[2] = molecular target: T2, human CACNG1 (Calcium Voltage-Gaged Auxiliary Subunit Gamma 1) (human, UniProt Q06432 1-222); assay: no binding assay described; descriptor in figure legend
T2 construct: In the transduction experiments it was expressed on 293 cells, human myotubes or muscle of humanized mice; also called hCACNG1; human CACNG1 protein
T2 sequence (Q06432 whole entry): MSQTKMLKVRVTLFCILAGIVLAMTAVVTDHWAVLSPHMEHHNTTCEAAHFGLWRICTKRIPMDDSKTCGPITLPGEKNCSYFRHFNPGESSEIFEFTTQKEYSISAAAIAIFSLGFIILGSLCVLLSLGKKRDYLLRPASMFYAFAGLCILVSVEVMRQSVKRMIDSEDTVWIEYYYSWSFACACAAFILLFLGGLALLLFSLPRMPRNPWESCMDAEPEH

mouse CACNG1 [3] = molecular target: T1, mouse CACNG1; assay: as above

Binder | binding result (mouse CACNG1 [1]) | binding result [2] | binding result (mouse CACNG1 [3])
CACNG1 mAb #5 (antibody, V domains shown, also called Antibody Designation 5; 14574/10783) VH: QVQLVESGGGVVQPGTSLRLSCAASGFTFSSYGMHWVRQAPGKGLEWVAVIWIDGSNKYYADSVKGRFTISRDNSKNTLYLQMNSLRAEDTAVYYCARRGGIVVAAPFDYWGQGTLVTVSS VL: not shown | no binding |  | 
CACNG1 mAb #1 (antibody, V domains shown, On AAV particles the heavy chain was in a hIgG4US backbone, fused at its C-terminus to SpyCatcher and joined to SpyTag on the capsid; a Fab form was also used; also called anti-hCACNG1 mAb #1; anti-CACNG1 mAb #1) VH: QVQLVESGGGVVQPGRSLRLSCTASGITFRNYGMHWVRQAPGKGLEWVAVMWYDGSNKYYADSVKGRFTISGDNSKVYLQMNSLRAEDTAVYYCARRGTIRTAAPFDYWGQGTLVTVSS VL: not shown | no binding |  | 
CACNG1 mAb #3 (antibody, V domains shown, On AAV particles the heavy chain was fused at its C-terminus to SpyCatcher; also called Antibody Designation 3; 14572/10717) VH: QVQLVESGGGVVQPGRSLRLSCAASGFTFSTYGMHWVRQAPGKGLEWVAVIWHDGSDKYYVDSVKGRFSIARDNSKNTLYLQMNSLRVEDTGIYYCARRGIRGTVFDHWGLGTLVTVSS VL: DIQMTQSPSTLSASVGDRVTLTCRASQSISNKLAWYQQKPGKAPNLLIYKASNLESGVPSRFSGSGSGTEFTLTISSLQPDDFATYYCQQYNSYSWTFGQGTKVEIK |  | binds | binds
